Reference: PMC12226651

Legend:
[1] = target: dynamic microtubules grown from purified bovine brain tubulin (bovine) (UniProt Q6B856); test: optical trap rupture force assay; kinetochores purified without benzonase, held on beads by anti-penta-His antibody via Dsn1-6His-3M3DK, attached to the tip of dynamic microtubules grown from coverslip-anchored seeds; BRB80 growth buffer, 23 °C; force raised at 0.25 pN/s until detachment
[2] = target: dynamic microtubules grown from purified bovine brain tubulin (bovine) (UniProt Q6B856); test: optical trap rupture force assay; kinetochores purified with benzonase, held on beads by anti-penta-His antibody via Dsn1-6His-3M3DK, attached to the tip of dynamic microtubules grown from coverslip-anchored seeds; BRB80 growth buffer, 23 °C; force raised at 0.25 pN/s until detachment

Row | median rupture force [1] [pN] | median rupture force [2] [pN] | Substance
1 | 7.5 | 6.4 | K. marxianus kinetochores purified via Dsn1-6His-3M3DK (from UniProt A0ABX6F0Z3 1-547) (complex)
2 | 7.2 | – | S. cerevisiae kinetochores purified via Dsn1-6His-3M3DK (from UniProt P40568 1-576) (complex)
